# According to publication PMC11912399:
# Key:
# [1] = target: CrImpαΔIBB (Chlamydomonas reinhardtii importin α IPA1, Cre04.g215850, lacking the autoinhibitory IBB domain) (Chlamydomonas reinhardtii); experiment: ELISA
# [2] = target: CrImpαΔIBB (Chlamydomonas reinhardtii importin α IPA1, Cre04.g215850, lacking the autoinhibitory IBB domain) (Chlamydomonas reinhardtii); experiment: MST
Substance,Kd [1] [nM],Kd [2] [nM]
EN Cas9 (Cas9 with the VirE2^O NLS fused to its N-terminus) (enzyme),7.81,
DN Cas9 (Cas9 with the VirD2^O NLS fused to its N-terminus) (enzyme),4.79,4.48
"D^K1AR2AR15AN Cas9 (DN Cas9 with K1A, R2A and R15A in the VirD2^O NLS) (enzyme)",42.6,
PN Cas9 (Cas9 with the putative endogenous CrPAP1 NLS fused to its N-terminus) (enzyme),17.1,
EC Cas9 (Cas9 with the VirE2^O NLS fused to its C-terminus) (enzyme),6.9,
D^K1AR2AN Cas9 (DN Cas9 with K1A and R2A in the VirD2^O NLS) (enzyme),13.3,
DC Cas9 (Cas9 with the VirD2^O NLS fused to its C-terminus) (enzyme),5.01,
SN Cas9 (Cas9 with the SV40TAg NLS fused to its N-terminus) (enzyme),8.73,11.4
D^R15AN Cas9 (DN Cas9 with R15A in the VirD2^O NLS) (enzyme),15.2,
D^NopN Cas9 (Cas9 with the nopaline-type VirD2^N NLS fused to its N-terminus) (enzyme),7.88,
SC Cas9 (Cas9 with the SV40TAg NLS fused to its C-terminus) (enzyme),9.21,
